The supplement of paper PMC9170038

Test system: MS2 coat protein
Assay: apparent KD of MS2 coat protein; designed switch direction (-1 OFF switch, 1 ON switch): -1; higher = weaker reporter binding
In short: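 On Illumina chips, designed RNA switches with common flanks were made by stalled E. coli RNA polymerase. Titrations with SNAP-549-labelled MS2 coat protein, doubling from 0.7 or 1.5 nM to 3 µM, were done with no input, with 200 uM small-molecule ligand, or with an oligonucleotide input. Apparent KD is the median per design over clusters, from curve fits of normalised cluster fluorescence.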

[1] = input ligand: microRNA oligo, concentration not stated
[2] = Eterna round: R95, input ligand: microRNA oligo, concentration not stated
[3] = Eterna round: R95, input ligand: FMN 200 uM
[4] = Eterna round: R95, input ligand: none

GCCGGAUUUGUGAGGAUAUGCCUAUGGAUACAUAGGCAGAAGGCACAUGAGGAUCACCCAUGUACCUCACCGGC [JL-BMX4-4.23 Eli mod] (Eterna round: R97, puzzle: Brourd's mod of Exclusion 4)
apparent KD of MS2 coat protein (input ligand: FMN 200 uM): 141 nM
apparent KD of MS2 coat protein (input ligand: none): 21.4 nM

CACCGUUACAGAGGAUAUGGUACAUGAGGAUCACCCAUGUAAUAAAUGAGAAUUUCGGAUGUAUUCCAGAAGGCUGAAAUCGGC [Ostricism 64 - Jieux - Exclusion NG 2] (Eterna round: R96, puzzle: Exclusion NG 2)
apparent KD of MS2 coat protein (input ligand: FMN 200 uM): 50.2 nM
apparent KD of MS2 coat protein [1]: 30.2 nM
apparent KD of MS2 coat protein (input ligand: none): 46.8 nM

GGGACACAUGAGGAUCACCCAUGUGAGGAUAUGUUAGUUUCGGCCAAAGCCGAAAUUAACAGAAGGCACAUACC [JR_Exclusion1_Sub020] (puzzle: Exclusion 1)
apparent KD of MS2 coat protein [2]: 35.7 nM

AGUUGGCGAGGAUAUACAUGAGGAUCACCCAUGUGAGAGAAUAAAGUGAGAAAGAAAAGUAGAAGGCGCUGACG [Mat - Exclusion 3 - Mod of Salish D50] (puzzle: Exclusion 3)
apparent KD of MS2 coat protein [3]: 82.8 nM
apparent KD of MS2 coat protein [2]: 62.7 nM
apparent KD of MS2 coat protein [4]: 41.4 nM

UUAUUUAGGUAGGAUAUCGAUAUUAAUUAUUAUCGAGAAGGGUCUACAUGAGGAUCACCCAUGUUAGCAUGUUU [LRO-Excl6-09-Rocketman] (Eterna round: R97, puzzle: Exclusion 6)
apparent KD of MS2 coat protein (input ligand: FMN 200 uM): 23.3 nM
apparent KD of MS2 coat protein (input ligand: none): 29.3 nM

ACAUGUUGUCCAUGAUAUUACAUGAGGAUCACCCAUGUUAUGGCGAUUUUGAUGUGUAAGUUUGUUGCUCGUCUUAU [JR_STOV1_Sub061] (Eterna round: R97, puzzle: Sensor, turn-off variant 1)
apparent KD of MS2 coat protein (input ligand: FMN 200 uM): 19.2 nM
apparent KD of MS2 coat protein (input ligand: none): 20.6 nM

AAUUAGCAAGCGAGAUCCCACAUGAGGAUCACCCAUGUGCUCGUCUUAUAAAAGACUGUGACGAUAGUCACGGUCAC [Mat - Sensor, turn-off var - Eli Mod - D25] (Eterna round: R97, puzzle: Sensor, turn-off variant 1)
apparent KD of MS2 coat protein (input ligand: FMN 200 uM): 15.3 nM
apparent KD of MS2 coat protein (input ligand: none): 12.3 nM

GAAAACGCAGAGGAUAUUUCAGAUCAAAGCUGCAAAGAAGGCUGCACAUGAGGAUCACCCAUGUGGUCUUCAAU [Mat - Exclusion 6 - JL Mod - D8] (Eterna round: R97, puzzle: Exclusion 6)
apparent KD of MS2 coat protein (input ligand: FMN 200 uM): 315 nM
apparent KD of MS2 coat protein (input ligand: none): 25.8 nM

CCAAGCUUAUUCAUUAACCACAUGAGGAUCACCCAUGUAUAGGCAAUUAUGACUGGGCUCUGUGGUGCUCGUCUUAU [Sensor-V1 #27] (Eterna round: R97, puzzle: Sensor, turn-off variant 1)
apparent KD of MS2 coat protein (input ligand: FMN 200 uM): 146 nM
apparent KD of MS2 coat protein (input ligand: none): 143 nM

AAUAACAGAGGAUAUACUGUUUUAUGUGUUUGUUGUUUUGAACAUGAGGAUCACCCAUGUAGAAGGCUGAGUAA [JMF 41] (puzzle: Exclusion 2)
apparent KD of MS2 coat protein [2]: 22.9 nM

UAUUAGCAAGCGAGAUCCCACAUGAGGAUCACCCAUGUGCUCGCAUCCAGAAUUACUGGGUGCAAAGCUCGUCUUAU [Winner reversed engineered 8] (Eterna round: R97, puzzle: Sensor, turn-off variant 1)
apparent KD of MS2 coat protein (input ligand: FMN 200 uM): 23.1 nM
apparent KD of MS2 coat protein (input ligand: none): 23.3 nM

UGUGAGCAUGUCAGGAUAUGCAUCACAGUUAGGAUGUAGAAGGGACAUGAGGAUCACCCAUGUAGCUUCAGGUA [BmEX4 A.20] (Eterna round: R97, puzzle: Brourd's mod of Exclusion 4)
apparent KD of MS2 coat protein (input ligand: FMN 200 uM): 17.7 nM
apparent KD of MS2 coat protein (input ligand: none): 14.5 nM

CGAUGCUCGUGUCCACAUGAGGAUCACCCAUGUCGAGUUAGCGAGGAUAUCGGUGACACAUAGUACGAGAAGGCGCGAACCUGA [Ex NG3 #26] (Eterna round: R96, puzzle: Exclusion NG 3)
apparent KD of MS2 coat protein (input ligand: FMN 200 uM): 54.3 nM
apparent KD of MS2 coat protein [1]: 21 nM
apparent KD of MS2 coat protein (input ligand: none): 32.2 nM

CAAACCAGAGGAUAUGCGCAUAGAUCAGACUUUGUUUCUUAACAUGAGGAUCACCCAUGUAGAAGGCUGUAAAA [Ex2 #73] (Eterna round: R97, puzzle: Exclusion 2)
apparent KD of MS2 coat protein (input ligand: FMN 200 uM): 18.4 nM
apparent KD of MS2 coat protein (input ligand: none): 17.6 nM

AUCCAACAUGAGGAUCACCCAUGUGAGGAUAUGCCCAAAACUCUUCGAUCCGAAGAGCGCAGAAGGCACAUGAA [EX1 A.18] (Eterna round: R97, puzzle: Exclusion 1)
apparent KD of MS2 coat protein (input ligand: FMN 200 uM): 33.4 nM
apparent KD of MS2 coat protein (input ligand: none): 13.2 nM

CCGCAACAUGAGGAUCACCCAUGUCAGGAUAUCGUACGUUCGUCGAAAGACGAUCGUACGAGAAGGGUGUGCGG [Eli x1 4.36] (Eterna round: R97, puzzle: Exclusion 1)
apparent KD of MS2 coat protein (input ligand: FMN 200 uM): 79.8 nM
apparent KD of MS2 coat protein (input ligand: none): 110 nM

UAGAAAGGUAAGGAUAUCCUUGAGAAAGAAAGAGGAGAAGGUACCACAUGAGGAUCACCCAUGUGGCUCUCAAA [jl-ex6-4.57 Nando mod] (Eterna round: R97, puzzle: Exclusion 6)
apparent KD of MS2 coat protein (input ligand: FMN 200 uM): 15.2 nM
apparent KD of MS2 coat protein (input ligand: none): 13.7 nM

GUCAGCUCGUGAGGAUAUACAUGCGUGCUUCGGCACGAAUUUAAGAUCACAUGAGGAUCACCCAUGUAGAAGGCACGAGCUGAU [ENG2/3-A2] (Eterna round: R96, puzzle: Exclusion NG 2)
apparent KD of MS2 coat protein (input ligand: FMN 200 uM): 366 nM
apparent KD of MS2 coat protein [1]: 896 nM
apparent KD of MS2 coat protein (input ligand: none): 797 nM

AACACUGUAGGAUAUCAUGAACUGGACUUGAGGAUCACCCAAGUGUAUCCUGGAGUGCCGUGAGAAGGACGGAAAA [Erzalelaan] (Eterna round: R97, puzzle: Exclusion 5)
apparent KD of MS2 coat protein (input ligand: FMN 200 uM): 56.5 nM
apparent KD of MS2 coat protein (input ligand: none): 46.9 nM

UACAUGAGGAUCACCCAUGUUUUGUCGUGUAUGGUAUUUAUCUAGGAUAUCAAUGGAUUUAUUUAUGAGAAGGAGAAUAUUAAU [JMF's solution 38] (Eterna round: R96, puzzle: Exclusion NG 3)
apparent KD of MS2 coat protein (input ligand: FMN 200 uM): 39.6 nM
apparent KD of MS2 coat protein [1]: 25.6 nM
apparent KD of MS2 coat protein (input ligand: none): 32.3 nM

UUUUACUUAGGAUAUACAUUUUUUUAUUUAUUUAUAAUAUUACAUGAGGAUCACCCAUGUAGAAGGGAGAUUUU [My Design] (puzzle: Exclusion 2)
apparent KD of MS2 coat protein [2]: 78.1 nM

ACUUACUGAGGAUAUACAUAGAUUUACAUGAGGAUCACCCAUGUUCCUCUAAGUAUAUAUGUAGAAGGCAGAAGGU [Mat - Exclusion 5 - JL Mod - D42] (Eterna round: R97, puzzle: Exclusion 5)
apparent KD of MS2 coat protein (input ligand: FMN 200 uM): 177 nM
apparent KD of MS2 coat protein (input ligand: none): 214 nM

UUUUACAGGCUUAGAUCCUACAUGAGGAUCACCCAUGUGGUCCGGUGACGUGAGUCACCGGACUAAGCUCGUCUUGU [JL TOV1 3.72] (Eterna round: R97, puzzle: Sensor, turn-off variant 1)
apparent KD of MS2 coat protein (input ligand: FMN 200 uM): 156 nM
apparent KD of MS2 coat protein (input ligand: none): 143 nM

GAGAGCAACGUCAGGAUAUUUAACCAAAACGCGGUAGAGAAGGGACAUGAGGAUCACCCAUGUGACUUCGGGCA [Eternabot (L1) Solution 83] (Eterna round: R97, puzzle: Brourd's mod of Exclusion 4)
apparent KD of MS2 coat protein (input ligand: FMN 200 uM): 15.5 nM
apparent KD of MS2 coat protein (input ligand: none): 16.8 nM

CCCAUGUCAGGAUAUCUAAGAGAGGGCCAGCCCUCUCCUCCGGAGAAGGGACAUGAGGAUCACCCAUGUAAAAC [Biedle] (puzzle: Exclusion 4)
apparent KD of MS2 coat protein [2]: 93.3 nM

UGCUACAUGAGGAUCACCCAUGUAAUGUGGGAUUCGUUAGGACAGGAUAUGAUUGUAUAGUUUUUUCAGAAGGGUCAUUACUUU [JR_ExcNG3_Sub010] (Eterna round: R96, puzzle: Exclusion NG 3)
apparent KD of MS2 coat protein [1]: 62.9 nM

CCUAGUUGGUAAGGAUAUCCUACACUGUUCUGACCCGGGCAUGCUACAUGAGGAUCACCCAUGUGGGAGAAGGUGCGUCAACGC [Design 14] (Eterna round: R96, puzzle: Exclusion NG 2)
apparent KD of MS2 coat protein (input ligand: FMN 200 uM): 36.8 nM
apparent KD of MS2 coat protein [1]: 19.3 nM
apparent KD of MS2 coat protein (input ligand: none): 30.6 nM

GGAGGAAGAGAGGAUAUGGAGGAGAGGAGAAGACCAGAAGGUUCAACAUGAGGAUCACCCAUGUAUGAUCCUCA [AK-MS2ROC-r4-exclusion6-1.1] (Eterna round: R97, puzzle: Exclusion 6)
apparent KD of MS2 coat protein (input ligand: FMN 200 uM): 789 nM
apparent KD of MS2 coat protein (input ligand: none): 694 nM

GUUUUCAGACGGAGAUCCUACAUGAGGAUCACCCAUGUCUCUCUUGUUAAUUGCUCGUCUUUUCCUCCUCUGUUCUC [Elimod 34 - Jieux - Sensor, turn-off variant 1] (Eterna round: R97, puzzle: Sensor, turn-off variant 1)
apparent KD of MS2 coat protein (input ligand: FMN 200 uM): 545 nM
apparent KD of MS2 coat protein (input ligand: none): 605 nM

UUAUUAUAUGUAGGAUAUGCAUAUUGUUGUUAUGCAGAAGGACAUGAGGAUCACCCAUGUAUAUUAUUGUUAUAUAUUGUAUAU [Title] (Eterna round: R96, puzzle: Exclusion NG 1)
apparent KD of MS2 coat protein [1]: 18.2 nM

GGUGUACUAGUCAGGAUAUGAUUAAUACCAAAGAAUCAGAAGGGACAUGAGGAUCACCCAUGUAAAGAAGGAGA [BmEX4 A.23] (Eterna round: R97, puzzle: Brourd's mod of Exclusion 4)
apparent KD of MS2 coat protein (input ligand: FMN 200 uM): 158 nM
apparent KD of MS2 coat protein (input ligand: none): 32.5 nM

UAUUAGUGAGGAUAUGAGUCGUAGAACAAUAGUACUACGUCUCAGAAGGCACAUGAGGAUCACCCAUGUUCCUU [Fiskers Ex 4 Super Stable 44 mod 35] (puzzle: Exclusion 4)
apparent KD of MS2 coat protein [2]: 13.6 nM

AGUUGUUGUUUCCGUUCUUACAUGAGGAUCACCCAUGUUUCUUGUCGUGCUCGCGUUGCUCGUCUGGCUACCUGUUG [salish99_TOv1_r3_068] (puzzle: Sensor v3, turn-off variant 1)
apparent KD of MS2 coat protein [3]: 33.9 nM
apparent KD of MS2 coat protein [2]: 34 nM
apparent KD of MS2 coat protein [4]: 43.8 nM

GGUUGACAUGAGGAUCACCCAUGUGAGGAUAUGCGAGAGAAAAAAGUGAGGAAGUUAAGCAGAAGGCGCUGUCG [salish99-ex1_r3_005] (puzzle: Exclusion 1)
apparent KD of MS2 coat protein [3]: 89.5 nM
apparent KD of MS2 coat protein [2]: 78 nM
apparent KD of MS2 coat protein [4]: 307 nM
